# Results published in PMC8036949, “Investigation of the Interaction of Human Origin Recognition Complex Subunit 1 with G-Quadruplex DNAs of Human c-myc Promoter and Telomere Regions”.
# T1: hORC1(413-511) (Homo sapiens, UniProt Q13415 413-511)
# T1 sequence: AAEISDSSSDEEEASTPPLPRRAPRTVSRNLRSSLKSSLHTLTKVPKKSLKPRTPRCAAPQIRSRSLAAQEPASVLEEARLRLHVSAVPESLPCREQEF
# B1: dsDNA (dsDNA)
# DNA 1: AAATTTAAAAAAAAAAATAATT
# DNA 2: AATTATTTTTTTTTTTAAATTT
# Target: T1, hORC1(413-511)
# Assay: fluorescence anisotropy; 100 mM KCl; FA: 20 mM HEPES-KOH pH 7.7, 100 mM KCl (or LiCl), 1 mM EDTA, 1 mM DTT, 25 C, 2 uM DNA, 1:1 fit; NMR: same buffer with 10% D2O, 10 uM DSS, 75 uM DNA, 25 C
# Details: protein: recombinant, tags: N-terminal GST (pGEX-6P-1) removed with PreScission protease
# [1] = label: 5'-FAM, G4, multiple folds, 1 strand
binder,measurement,setting,value
TTGGGTTAGGGTTAGGGTTAGGGA (structured_DNA) [teloDNA],Kd,"label: 5'-FAM (FA), label in NMR not clear, (3+1) G4 in K+, 1 strand",227 ± 23.6 nM
TGAGGGTGGGTAGGGTGGGTAA (structured_DNA) [mtPu22],Kd,"label: 5'-FAM (FA), label in NMR not clear, parallel G4, 1 strand",310 ± 39.2 nM
TGGGGAGGGTGGGGAGGGT (structured_DNA) [wtPu19],Kd,[1],45.2 nM
B1,Kd,"label: 5'-FAM on strand 1, blunt",1910 nM
TGAGGGTGGGGAGGGTGGGGAA (structured_DNA) [wtPu22],Kd,[1],166 nM
TAGGGAGGGTAGGGAGGGT (structured_DNA) [mtPu19],Kd,"label: 5'-FAM, parallel G4, 1 strand",446 ± 308 nM
